B1: STX6 (protein, UniProt O43752 2-255, looked up)
Syntaxin-6: SMEDPFFVVKGEVQKAVNTAQGLFQRWTELLQDPSTATREEIDWTTNELRNNLRSIEWDLEDLDETISIVEANPRKFNLDATELSIRKAFITSTRQVVRDMKDQMSTSSVQALAERKNRQALLGDSGSQNWSTGTTDKYGRLDRELQRANSHFIEEQQAQQQLIVEQQDEQLELVSGSIGVLKNMSQRIGGELEEQAVMLEDFSHELESTQSRLDNVMKKLAKVSHMTSDRRQWCAIAILFAVLLVVLILFLVL
B2: PILRA (protein, UniProt Q9UKJ1 20-303, looked up)
Paired immunoglobulin-like …: QPSGSTGSGPSYLYGVTQPKHLSASMGGSVEIPFSFYYPWELATAPDVRISWRRGHFHRQSFYSTRPPSIHKDYVNRLFLNWTEGQKSGFLRISNLQKQDQSVYFCRVELDTRSSGRQQWQSIEGTKLSITQAVTTTTQRPSSMTTTWRLSSTTTTTGLRVTQGKRRSDSWHISLETAVGVAVAVTVLGIMILGLICLLRWRRRKGQQRTKATTPAREPFQNTEEPYENIRNEGQNTDPKLNPKDDGIVYASLALSSSTSPRAPPSHRPLKSPQNETLYSVLKA
B3: CRKL (protein, UniProt P46109 1-303, looked up)
Crk-like protein: MSSARFDSSDRSAWYMGPVSRQEAQTRLQGQRHGMFLVRDSSTCPGDYVLSVSENSRVSHYIINSLPNRRFKIGDQEFDHLPALLEFYKIHYLDTTTLIEPAPRYPSPPMGSVSAPNLPTAEDNLEYVRTLYDFPGNDAEDLPFKKGEILVIIEKPEEQWWSARNKDGRVGMIPVPYVEKLVRSSPHGKHGNRNSNSYGIPEPAHAYAQPQTTTPLPAVSGSPGAAITPLPSTQNGPVFAKAIQKRVPCAYDKTALALEVGDIVKVTRMNINGQWEGEVNGRKGLFPFTHVKIFDPQNPDENE
B4: IRAK1 (protein, UniProt P51617 1-712, looked up)
Interleukin-1 …: MAGGPGPGEPAAPGAQHFLYEVPPWVMCRFYKVMDALEPADWCQFAALIVRDQTELRLCERSGQRTASVLWPWINRNARVADLVHILTHLQLLRARDIITAWHPPAPLPSPGTTAPRPSSIPAPAEAEAWSPRKLPSSASTFLSPAFPGSQTHSGPELGLVPSPASLWPPPPSPAPSSTKPGPESSVSLLQGARPFPFCWPLCEISRGTHNFSEELKIGEGGFGCVYRAVMRNTVYAVKRLKENADLEWTAVKQSFLTEVEQLSRFRHPNIVDFAGYCAQNGFYCLVYGFLPNGSLEDRLHCQTQACPPLSWPQRLDILLGTARAIQFLHQDSPSLIHGDIKSSNVLLDERLTPKLGDFGLARFSRFAGSSPSQSSMVARTQTVRGTLAYLPEEYIKTGRLAVDTDTFSFGVVVLETLAGQRAVKTHGARTKYLKDLVEEEAEEAGVALRSTQSTLQAGLAADAWAAPIAMQIYKKHLDPRPGPCPPELGLGLGQLACCCLHRRAKRRPPMTQVYERLEKLQAVVAGVPGHSEAASCIPPSPQENSYVSSTGRAHSGAAPWQPLAAPSGASAQAAEQLQRGPNQPVESDESLGGLSAALRSWHLTPSCPLDPAPLREAGCPQGDTAGESSWGSGPGSRPTAVEGLALGSSASSSSEPPQIIINPARQKMVQKLALYEDGALDSLQLLSSSSLPGLGLEQDRQGPEESDEFQS
B5: CCL5 (protein, UniProt P13501 24-91, looked up)
C-C motif chemokine 5: SPYSSDTTPCCFAYIARPLPRAHIKEYFYTSGKCSNPAVVFVTRKNRQVCANPEKKWVREYINSLEMS
B6: PRTN3 (protein, UniProt P24158 28-248, looked up)
Myeloblastin: IVGGHEAQPHSRPYMASLQMRGNPGSHFCGGTLIHPSFVLTAAHCLRDIPQRLVNVVLGAHNVRTQEPTQQHFSVAQVFLNNYDAENKLNDVLLIQLSSPANLSASVATVQLPQQDQPVPHGTQCLAMGWGRVGAHDPPAQVLQELNVTVVTFFCRPHNICTFVPRRKAGICFGDSGGPLICDGIIQGIDSFVIWGCATRLFPDFFTRVALYVDWIRSTLR
B7: PPP1R2 (protein, UniProt P41236 2-205, looked up)
Protein phosphatase inhibitor …: AASTASHRPIKGILKNKTSTTSSMVASAEQPRGNVDEELSKKSQKWDEMNILATYHPADKDYGLMKIDEPSTPYHSMMGDDEDACSDTEATEAMAPDILARKLAAAEGLEPKYRIQEQESSGEEDSDLSPEEREKKRQFEMKRKLHYNEGLNIKLARQLISKDLHDDDEDEEMLETADGESMNTEESNQGSTPSDQQQNKLRSS
B8: SMOC2 (protein, UniProt Q9H3U7 22-446, looked up)
SPARC-related modular …: QKFSALTFLRVDQDKDKDCSLDCAGSPQKPLCASDGRTFLSRCEFQRAKCKDPQLEIAYRGNCKDVSRCVAERKYTQEQARKEFQQVFIPECNDDGTYSQVQCHSYTGYCWCVTPNGRPISGTAVAHKTPRCPGSVNEKLPQREGTGKTDDAAAPALETQPQGDEEDIASRYPTLWTEQVKSRQNKTNKNSVSSCDQEHQSALEEAKQPKNDNVVIPECAHGGLYKPVQCHPSTGYCWCVLVDTGRPIPGTSTRYEQPKCDNTARAHPAKARDLYKGRQLQGCPGAKKHEFLTSVLDALSTDMVHAASDPSSSSGRLSEPDPSHTLEERVVHWYFKLLDKNSSGDIGKKEIKPFKRFLRKKSKPKKCVKKFVEYCDVNNDKSISVQELMGCLGVAKEDGKADTKKRHTPRGHAESTSNRQPRKQG
B9: ESM-1 (protein, UniProt Q9NQ30 20-184, looked up)
Endothelial cell-specific …: WSNNYAVDCPQHCDSSECKSSPRCKRTVLDDCGCCRVCAAGRGETCYRTVSGMDGMKCGPGLRCQPSNGEDPFGEEFGICKDCPYGTFGMDCRETCNCQSGICDRGTGKCLKFPFFQYSVTKSSNRFVSLTEHDMASGDGNIVREEVVKENAAGSPVMRKWLNPR
B10: STX16 (protein, UniProt O14662 1-325, looked up)
Syntaxin-16: MATRRLTDAFLLLRNNSIQNRQLLAEQVSSHITSSPLHSRSIAAELDELADDRMALVSGISLDPEAAIGVTKRPPPKWVDGVDEIQYDVGRIKQKMKELASLHDKHLNRPTLDDSSEEEHAIEITTQEITQLFHRCQRAVQALPSRARACSEQEGRLLGNVVASLAQALQELSTSFRHAQSGYLKRMKNREERSQHFFDTSVPLMDDGDDNTLYHRGFTEDQLVLVEQNTLMVEEREREIRQIVQSISDLNEIFRDLGAMIVEQGTVLDRIDYNVEQSCIKTEDGLKQLHKAEQYQKKNRKMLVILILFVIIIVLIVVLVGVKSR
B11: ANG-1 (protein, UniProt Q15389 16-498, looked up)
Angiopoietin-1: HIGCSNQRRSPENSGRRYNRIQHGQCAYTFILPEHDGNCRESTTDQYNTNALQRDAPHVEPDFSSQKLQHLEHVMENYTQWLQKLENYIVENMKSEMAQIQQNAVQNHTATMLEIGTSLLSQTAEQTRKLTDVETQVLNQTSRLEIQLLENSLSTYKLEKQLLQQTNEILKIHEKNSLLEHKILEMEGKHKEELDTLKEEKENLQGLVTRQTYIIQELEKQLNRATTNNSVLQKQQLELMDTVHNLVNLCTKEGVLLKGGKREEEKPFRDCADVYQAGFNKSGIYTIYINNMPEPKKVFCNMDVNGGGWTVIQHREDGSLDFQRGWKEYKMGFGNPSGEYWLGNEFIFAITSQRQYMLRIELMDWEGNRAYSQYDRFHIGNEKQNYRLYLKGHTGTAGKQSSLILHGADFSTKDADNDNCMCKCALMLTGGWWFDACGPSNLNGMFYTAGQNHGKLNGIKWHYFKGPSYSLRSTTMMIRPLDF
B12: IL-5R-alpha (protein, UniProt Q01344 21-420, looked up)
Interleukin-5 receptor …: DLLPDEKISLLPPVNFTIKVTGLAQVLLQWKPNPDQEQRNVNLEYQVKINAPKEDDYETRITESKCVTILHKGFSASVRTILQNDHSLLASSWASAELHAPPGSPGTSIVNLTCTTNTTEDNYSRLRSYQVSLHCTWLVGTDAPEDTQYFLYYRYGSWTEECQEYSKDTLGRNIACWFPRTFILSKGRDWLAVLVNGSSKHSAIRPFDQLFALHAIDQINPPLNVTAEIEGTRLSIQWEKPVSAFPIHCFDYEVKIHNTRNGYLQIEKLMTNAFISIIDDLSKYDVQVRAAVSSMCREAGLWSEWSQPIYVGNDEHKPLREWFVIVIMATICFILLILSLICKICHLWIKLFPPIPAPKSNIKDLFVTTNYEKAGSSETEIEVICYIEKPGVETLEDSVF
B13: DFFA (protein, UniProt O00273 1-331, looked up)
DNA fragmentation factor …: MEVTGDAGVPESGEIRTLKPCLLRRNYSREQHGVAASCLEDLRSKACDILAIDKSLTPVTLVLAEDGTIVDDDDYFLCLPSNTKFVALASNEKWAYNNSDGGTAWISQESFDVDETDSGAGLKWKNVARQLKEDLSSIILLSEEDLQMLVDAPCSDLAQELRQSCATVQRLQHTLQQVLDQREEVRQSKQLLQLYLQALEKEGSLLSKQEESKAAFGEEVDAVDTGISRETSSDVALASHILTALREKQAPELSLSSQDLELVTKEDPKALAVALNWDIKKTETVQEACERELALRLQQTQSLHSLRSISASKASPPGDLQNPKRARQDPT
B14: MAP2K6 (protein, UniProt P52564 1-334, looked up)
Dual specificity …: MSQSKGKKRNPGLKIPKEAFEQPQTSSTPPRDLDSKACISIGNQNFEVKADDLEPIMELGRGAYGVVEKMRHVPSGQIMAVKRIRATVNSQEQKRLLMDLDISMRTVDCPFTVTFYGALFREGDVWICMELMDTSLDKFYKQVIDKGQTIPEDILGKIAVSIVKALEHLHSKLSVIHRDVKPSNVLINALGQVKMCDFGISGYLVDSVAKTIDAGCKPYMAPERINPELNQKGYSVKSDIWSLGITMIELAILRFPYDSWGTPFQQLKQVVEEPSPQLPADKFSAEFVDFTSQCLKKNSKERPTYPELMQHPFFTLHESKGTDVASFVKLILGD

The test system of the assay is plasma proteins. Briefly: Plasma proteins modulated between baseline and day 28 in responders (CR, VGPR, PR; n = 19), Example 6 (Table 13). The format is in vivo, human. As to conditions: plasma protein (OLINK NPX); responders (CR, VGPR, PR; n = 19); itacitinib 200 mg or 300 mg QD with corticosteroids; day 28 vs baseline. The protocol: Due to the limited sample size, steroid-naive (N=10) and steroid-refractory (N=18) patients were combined for further analysis. Broad proteomic analysis of over 1000 proteins was conducted by OLINK Proteomics (Watertown, MA) using a proximity extension assay as described by the manufacturer. Data are presented as normalized protein expression (NPX) in log 2 scale. Statistical differences were evaluated using unpaired and paired t tests, one-way […] (ANOVA), and Pearson Correlation. Significance was conferred when P<0.05.
Longitudinal differences in protein expression were analyzed by evaluating plasma samples from baseline/screening and day 28.
For the molecule B1, the “Fold Change, Decreased Expression from Baseline to Day 28” value (shortened to “Fold Change, Decreased Expression”) is on record as −1.4715.

As to B2, the “Fold Change, Decreased Expression” value is listed as −1.2582.

B3: the “Fold Change, Decreased Expression” value is −1.8003.

With B4, the “Fold Change, Decreased Expression” value was −1.2986.

Consider B5, for which the “Fold Change, Decreased Expression” value was −1.6357.

With B6, the “Fold Change, Decreased Expression” value is −1.7658.

B7: the “Fold Change, Decreased Expression” value is −1.3339.

In the case of B8, the “Fold Change, Increased Expression from Baseline to Day 28” value is recorded as 1.2842.

In the case of B9, the “Fold Change, Decreased Expression” value was −1.4178.

Regarding B10, the “Fold Change, Decreased Expression” value is on record as −1.4673.

With B11, the “Fold Change, Decreased Expression” value is reported as −1.7898.

In the case of B12, the “Fold Change, Decreased Expression” value is −1.6599.

Turning to B13, the “Fold Change, Decreased Expression” value is given as −1.31.

As to B14, the “Fold Change, Decreased Expression” value is reported as −1.8184.

The values are drawn from patent US12099068B2, “Biomarkers for graft-versus-host disease” (Incyte Corporation, priority 2018, dated 2024).
